Laboratory results as given in doi:10.1101/364463 (bioRxiv, 2019).

Legend:
Experiment in all cases: pull-down
GST-PI31-WT = molecular target: T1, GST-PI31-WT (Drosophila, UniProt Q9V637 1-270)
T1 sequence: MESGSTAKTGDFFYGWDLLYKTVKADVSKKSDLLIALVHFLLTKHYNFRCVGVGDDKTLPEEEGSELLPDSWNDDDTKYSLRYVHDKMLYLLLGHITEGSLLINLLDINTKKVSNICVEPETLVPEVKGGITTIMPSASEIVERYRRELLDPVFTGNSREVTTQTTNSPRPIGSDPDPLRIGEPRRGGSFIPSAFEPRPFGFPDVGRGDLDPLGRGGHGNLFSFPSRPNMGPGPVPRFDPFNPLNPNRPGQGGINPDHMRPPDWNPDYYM

GST-PI31-S168D = molecular target: T2, GST-PI31-S168D (Drosophila, UniProt Q9V637 1-270, S168D)
T2 sequence: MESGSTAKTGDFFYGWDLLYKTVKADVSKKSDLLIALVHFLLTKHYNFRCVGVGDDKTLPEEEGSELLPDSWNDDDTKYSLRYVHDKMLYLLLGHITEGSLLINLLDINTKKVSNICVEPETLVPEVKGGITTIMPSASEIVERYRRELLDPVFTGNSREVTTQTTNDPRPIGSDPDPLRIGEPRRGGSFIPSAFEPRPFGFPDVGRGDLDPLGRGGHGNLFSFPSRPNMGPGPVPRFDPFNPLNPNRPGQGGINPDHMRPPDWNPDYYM

GST-PI31-S168E = molecular target: T3, GST-PI31-S168E (Drosophila, UniProt Q9V637 1-270, S168E)
T3 sequence: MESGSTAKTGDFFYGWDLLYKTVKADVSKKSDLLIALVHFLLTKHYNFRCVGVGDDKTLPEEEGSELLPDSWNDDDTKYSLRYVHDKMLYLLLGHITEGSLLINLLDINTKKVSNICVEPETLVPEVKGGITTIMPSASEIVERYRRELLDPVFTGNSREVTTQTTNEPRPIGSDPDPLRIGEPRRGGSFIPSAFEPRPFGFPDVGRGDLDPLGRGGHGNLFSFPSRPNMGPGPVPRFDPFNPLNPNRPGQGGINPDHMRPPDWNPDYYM

binding result (GST-PI31-WT): binds
binding result (GST-PI31-S168D): binds
binding result (GST-PI31-S168E): binds
B1: FLAG-dDYNLL1 (recombinant, E. coli) (natural protein)
chain: MSDRKAVIKNADMSEEMQQDAVDCATQALEKYNIEKDIAAYIKKEFDKKYNPTWHCIVGRNFGSYVTHETRHFIYFYLGQVAILLFKSG
